# Results reported in the supplement of paper PMC9112550, “Optimization of the antimicrobial peptide Bac7 by deep mutational scanning” (BMC Biology, 2022).
# System: Escherichia coli TOP10
# Assay: shrunken log2 fold change of peptide-encoding DNA abundance (4.5 h post-induction vs induction); higher = less antimicrobial activity (less host growth inhibition)
# Details: time post-induction: 4.5 h; library: site-saturation at positions 5, 18, 19, 20
# 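Also: peptides expressed intracellularly from a pBAD plasmid library in pooled LB shake-flask culture, induced with 0.3% L-arabinose, DNA abundance read by NGS, three biological replicates, DESeq2 with apeglm shrinkage.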
row,Sequence,shrunken log2 fold change
1,RRIRKRPPRLPRPRPRPHHPPRP,-0.123
2,RRIRYRPPRLPRPRPRPTQYPRP,-0.531
3,RRIRTRPPRLPRPRPRPDDMPRP,-0.0233
4,RRIRKRPPRLPRPRPRPLNAPRP,0.731
5,RRIRNRPPRLPRPRPRPITSPRP,-0.282
6,RRIRQRPPRLPRPRPRPEHMPRP,-0.0877
7,RRIRQRPPRLPRPRPRPQAMPRP,0.015
8,RRIRWRPPRLPRPRPRPVKKPRP,0.29
9,RRIRMRPPRLPRPRPRPMQTPRP,-0.00202
10,RRIRWRPPRLPRPRPRPWCLPRP,-0.334
11,RRIRGRPPRLPRPRPRPMIDPRP,0.967
12,RRIRARPPRLPRPRPRPFRVPRP,-0.19
13,RRIRNRPPRLPRPRPRPYEQPRP,-0.54
14,RRIRLRPPRLPRPRPRPPTWPRP,0.169
15,RRIRMRPPRLPRPRPRPNFFPRP,0.128
16,RRIRKRPPRLPRPRPRPWTYPRP,0.0938
17,RRIRIRPPRLPRPRPRPCWRPRP,0.157
18,RRIRERPPRLPRPRPRPLALPRP,-0.265
19,RRIRLRPPRLPRPRPRPPGGPRP,0.664
20,RRIRERPPRLPRPRPRPVVYPRP,-0.945
21,RRIRLRPPRLPRPRPRPQWQPRP,0.0949
22,RRIRRRPPRLPRPRPRPYHDPRP,-0.266
23,RRIRDRPPRLPRPRPRPHQMPRP,0.00713
24,RRIRIRPPRLPRPRPRPYPFPRP,-0.38
25,RRIRSRPPRLPRPRPRPQTCPRP,-0.0978

row,Sequence,shrunken log2 fold change
1,RRIRFRPPRLPRPRPRPRVNPRP,-0.116
2,RRIRHRPPRLPRPRPRPFAWPRP,-0.186
3,RRIRWRPPRLPRPRPRPTDNPRP,-0.17
4,RRIRLRPPRLPRPRPRPLHQPRP,-0.297
5,RRIRWRPPRLPRPRPRPRKSPRP,0.264
6,RRIRCRPPRLPRPRPRPKALPRP,0.0255
7,RRIRMRPPRLPRPRPRPGEFPRP,0.00408
8,RRIRRRPPRLPRPRPRPGQVPRP,0.239
9,RRIRGRPPRLPRPRPRPNSKPRP,0.0993
10,RRIRTRPPRLPRPRPRPAIIPRP,-0.233
11,RRIRPRPPRLPRPRPRPGEHPRP,-0.133
12,RRIRTRPPRLPRPRPRPNPFPRP,-0.216
13,RRIRFRPPRLPRPRPRPGNAPRP,0.0998
14,RRIRSRPPRLPRPRPRPCYAPRP,-0.478
15,RRIRFRPPRLPRPRPRPHERPRP,0.0652
16,RRIRTRPPRLPRPRPRPKKPPRP,-0.0293
17,RRIRCRPPRLPRPRPRPRKEPRP,0.239
18,RRIRPRPPRLPRPRPRPKFVPRP,-0.0877
19,RRIRHRPPRLPRPRPRPTRAPRP,0.348
20,RRIRSRPPRLPRPRPRPKNDPRP,-0.372
21,RRIRNRPPRLPRPRPRPRFAPRP,0.164
22,RRIRVRPPRLPRPRPRPRCQPRP,0.0744
23,RRIRTRPPRLPRPRPRPCKEPRP,-0.00136
24,RRIRFRPPRLPRPRPRPRISPRP,-0.0207
25,RRIRTRPPRLPRPRPRPQYHPRP,-0.329

row,Sequence,shrunken log2 fold change
1,RRIRLRPPRLPRPRPRPSRAPRP,0.0241
2,RRIRDRPPRLPRPRPRPWVFPRP,0.289
3,RRIRRRPPRLPRPRPRPNKPPRP,0.101
4,RRIRYRPPRLPRPRPRPSRQPRP,-0.114
5,RRIRCRPPRLPRPRPRPYTVPRP,-0.207
6,RRIRRRPPRLPRPRPRPLDYPRP,-0.324
7,RRIRKRPPRLPRPRPRPQMIPRP,-0.14
8,RRIRHRPPRLPRPRPRPVLHPRP,-0.501
9,RRIRLRPPRLPRPRPRPMTQPRP,0.162
10,RRIRPRPPRLPRPRPRPDNHPRP,-0.521
11,RRIRMRPPRLPRPRPRPSYGPRP,-0.0196
12,RRIRTRPPRLPRPRPRPMRDPRP,0.00292
13,RRIRNRPPRLPRPRPRPNPTPRP,-0.124
14,RRIRLRPPRLPRPRPRPERAPRP,0.705
15,RRIRTRPPRLPRPRPRPCLCPRP,-0.29
16,RRIRPRPPRLPRPRPRPFSQPRP,-0.231
17,RRIRFRPPRLPRPRPRPAWLPRP,0.231
18,RRIRYRPPRLPRPRPRPQRGPRP,-0.123
19,RRIRGRPPRLPRPRPRPHFVPRP,0.466
20,RRIRIRPPRLPRPRPRPPVSPRP,-0.116
21,RRIRVRPPRLPRPRPRPHWPPRP,-0.122
22,RRIRHRPPRLPRPRPRPCQWPRP,-0.0469
23,RRIRLRPPRLPRPRPRPLSSPRP,-0.0447
24,RRIRNRPPRLPRPRPRPQQSPRP,-0.0808
25,RRIRFRPPRLPRPRPRPVNMPRP,-1.23

row,Sequence,shrunken log2 fold change
1,RRIRQRPPRLPRPRPRPDPHPRP,-0.0406
2,RRIRKRPPRLPRPRPRPMPYPRP,-0.0398
3,RRIRWRPPRLPRPRPRPSFSPRP,-0.286
4,RRIRVRPPRLPRPRPRPTAYPRP,-0.094
5,RRIRVRPPRLPRPRPRPECEPRP,0.605
6,RRIRGRPPRLPRPRPRPHAQPRP,0.868
7,RRIRFRPPRLPRPRPRPLNKPRP,-0.522
8,RRIRMRPPRLPRPRPRPLTYPRP,-0.0782
9,RRIRSRPPRLPRPRPRPQWPPRP,0.121
10,RRIRRRPPRLPRPRPRPNFRPRP,0.0627
11,RRIRNRPPRLPRPRPRPEVTPRP,-0.0105
12,RRIRRRPPRLPRPRPRPKDGPRP,0.378
13,RRIRGRPPRLPRPRPRPSICPRP,0.207
14,RRIRTRPPRLPRPRPRPAEMPRP,-0.253
15,RRIRNRPPRLPRPRPRPPMRPRP,1.05
16,RRIRMRPPRLPRPRPRPGRLPRP,0.411
17,RRIRLRPPRLPRPRPRPVCYPRP,-0.156
18,RRIRARPPRLPRPRPRPYGKPRP,-0.747
19,RRIRCRPPRLPRPRPRPDEAPRP,0.262
20,RRIRKRPPRLPRPRPRPEVGPRP,1.29
21,RRIRPRPPRLPRPRPRPIMCPRP,-0.221
22,RRIRTRPPRLPRPRPRPRMHPRP,0.0254
23,RRIRTRPPRLPRPRPRPMYMPRP,-0.0921
24,RRIRVRPPRLPRPRPRPVHIPRP,-0.174
25,RRIRTRPPRLPRPRPRPLWTPRP,-0.0962

row,Sequence,shrunken log2 fold change
1,RRIRNRPPRLPRPRPRPPKGPRP,0.112
2,RRIRSRPPRLPRPRPRPQHIPRP,-1.21
3,RRIRTRPPRLPRPRPRPGAIPRP,-0.0669
4,RRIRMRPPRLPRPRPRPSAWPRP,1.75
5,RRIRPRPPRLPRPRPRPPKAPRP,-0.0122
6,RRIRFRPPRLPRPRPRPCKNPRP,0.0492
7,RRIRNRPPRLPRPRPRPRQKPRP,-0.0544
8,RRIRCRPPRLPRPRPRPPSSPRP,-0.0857
9,RRIRVRPPRLPRPRPRPFEDPRP,-0.151
10,RRIRFRPPRLPRPRPRPMSFPRP,-0.193
11,RRIRKRPPRLPRPRPRPVVYPRP,-0.266
12,RRIRPRPPRLPRPRPRPLIIPRP,-0.605
13,RRIRDRPPRLPRPRPRPKYFPRP,-0.0236
14,RRIRTRPPRLPRPRPRPRHGPRP,0.745
15,RRIRNRPPRLPRPRPRPAHIPRP,0.00258
16,RRIRNRPPRLPRPRPRPRSAPRP,0.0888
17,RRIRARPPRLPRPRPRPYWFPRP,-0.775
18,RRIRYRPPRLPRPRPRPNLSPRP,-0.0996
19,RRIRWRPPRLPRPRPRPTEEPRP,0.12
20,RRIRVRPPRLPRPRPRPPKQPRP,0.0106
21,RRIRLRPPRLPRPRPRPCGMPRP,-0.0649
22,RRIRCRPPRLPRPRPRPRWRPRP,0.442
23,RRIRLRPPRLPRPRPRPIFKPRP,-0.276
24,RRIRYRPPRLPRPRPRPRVIPRP,-0.0396
25,RRIRTRPPRLPRPRPRPENSPRP,0.032

row,Sequence,shrunken log2 fold change
1,RRIRSRPPRLPRPRPRPQHYPRP,-0.804
2,RRIRLRPPRLPRPRPRPSTTPRP,-0.347
3,RRIRNRPPRLPRPRPRPDWYPRP,-0.0314
4,RRIRHRPPRLPRPRPRPNSKPRP,-0.737
5,RRIRDRPPRLPRPRPRPKCTPRP,0.0239
6,RRIRCRPPRLPRPRPRPSRKPRP,-0.227
7,RRIRMRPPRLPRPRPRPAEEPRP,1.55
8,RRIRHRPPRLPRPRPRPSFGPRP,-0.561
9,RRIRIRPPRLPRPRPRPDPDPRP,-0.131
10,RRIRPRPPRLPRPRPRPCFEPRP,0.0232
11,RRIRMRPPRLPRPRPRPSALPRP,0.105
12,RRIRKRPPRLPRPRPRPDPIPRP,0.129
13,RRIRKRPPRLPRPRPRPHKGPRP,-0.0331
14,RRIRNRPPRLPRPRPRPWRNPRP,0.0352
15,RRIRHRPPRLPRPRPRPHNSPRP,-0.692
16,RRIRGRPPRLPRPRPRPYYQPRP,-0.537
17,RRIRWRPPRLPRPRPRPWMLPRP,-0.0694
18,RRIRQRPPRLPRPRPRPAPTPRP,0.709
19,RRIRHRPPRLPRPRPRPATNPRP,0.607
20,RRIRIRPPRLPRPRPRPDPKPRP,-0.183
21,RRIRHRPPRLPRPRPRPWPFPRP,-0.285
22,RRIRIRPPRLPRPRPRPRTGPRP,-0.0659
23,RRIRGRPPRLPRPRPRPQQKPRP,0.206
24,RRIRVRPPRLPRPRPRPIVSPRP,-0.187
25,RRIRMRPPRLPRPRPRPRGHPRP,1.33
